Ends that are not written are not given here. * marks the point of attachment. Biotin = O=C1N[C@H]2[C@H](CS[C@H]2CCCCC(=O)*)N1
Legend:
Assay in all cases: peptide or protein array; E. coli proteome chip: purified His-tagged proteins printed in duplicate on Fullmoon slides, blocked with 1% BSA; 10 nM N-terminal biotinylated LfcinB with 1% BSA, room temperature, 1 h; detected with DyLight 649-labeled streptavidin, ratio to DyLight 549-labeled anti-His antibody; ProCAT normalisation, local cut-off; triplicate chips
Settings in all cases: both partners purified
YibB = biological target: T1, YibB (E. coli K-12, UniProt P25666 1-285)
T1 construct: YibB, E. coli K-12
T1 sequence (looked up): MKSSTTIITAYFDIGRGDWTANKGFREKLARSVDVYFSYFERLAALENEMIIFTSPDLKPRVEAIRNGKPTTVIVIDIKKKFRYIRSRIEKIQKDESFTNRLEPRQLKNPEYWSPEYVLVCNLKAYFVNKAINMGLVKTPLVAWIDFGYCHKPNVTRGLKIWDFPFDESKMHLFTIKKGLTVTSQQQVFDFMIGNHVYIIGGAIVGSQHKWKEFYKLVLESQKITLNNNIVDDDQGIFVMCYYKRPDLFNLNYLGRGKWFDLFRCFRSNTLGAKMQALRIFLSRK

YjdI = biological target: T2, YjdI (E. coli K-12, UniProt P0AF59 1-76)
T2 construct: YjdI, E. coli K-12
T2 sequence (looked up): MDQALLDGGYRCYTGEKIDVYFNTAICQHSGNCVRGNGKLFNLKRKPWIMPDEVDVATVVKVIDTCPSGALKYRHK

YnhE = biological target: T3, YnhE (E. coli K-12, UniProt P77522 1-495)
T3 construct: YnhE, E. coli K-12
T3 sequence (looked up): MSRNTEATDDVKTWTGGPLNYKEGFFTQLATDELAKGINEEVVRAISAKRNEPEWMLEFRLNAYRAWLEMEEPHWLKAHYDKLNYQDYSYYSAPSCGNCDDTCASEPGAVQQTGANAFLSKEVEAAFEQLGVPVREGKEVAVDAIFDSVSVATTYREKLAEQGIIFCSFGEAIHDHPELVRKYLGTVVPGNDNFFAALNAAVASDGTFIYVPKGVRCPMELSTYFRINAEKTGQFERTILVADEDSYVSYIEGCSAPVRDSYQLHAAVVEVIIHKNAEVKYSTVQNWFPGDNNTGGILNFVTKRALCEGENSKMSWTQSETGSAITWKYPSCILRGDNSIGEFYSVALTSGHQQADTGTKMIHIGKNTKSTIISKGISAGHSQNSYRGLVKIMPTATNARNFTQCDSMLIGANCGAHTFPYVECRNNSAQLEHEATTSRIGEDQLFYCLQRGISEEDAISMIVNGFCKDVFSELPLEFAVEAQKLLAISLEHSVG

YjeS = biological target: T4, YjeS (E. coli K-12, UniProt P39288 1-379)
T4 construct: YjeS, E. coli K-12
T4 sequence (looked up): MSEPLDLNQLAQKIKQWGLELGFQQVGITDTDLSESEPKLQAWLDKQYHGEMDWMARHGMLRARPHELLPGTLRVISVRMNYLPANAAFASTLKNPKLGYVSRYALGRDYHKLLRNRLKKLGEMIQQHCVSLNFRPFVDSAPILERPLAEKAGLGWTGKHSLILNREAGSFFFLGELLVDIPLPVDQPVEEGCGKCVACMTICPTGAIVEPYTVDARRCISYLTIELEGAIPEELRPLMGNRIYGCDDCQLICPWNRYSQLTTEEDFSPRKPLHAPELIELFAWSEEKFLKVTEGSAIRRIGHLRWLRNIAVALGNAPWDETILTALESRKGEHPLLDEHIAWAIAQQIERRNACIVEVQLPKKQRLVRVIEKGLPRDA

SoxS = biological target: T5, SoxS (E. coli K-12, UniProt P0A9E2 1-107)
T5 construct: SoxS, E. coli K-12
T5 sequence (looked up): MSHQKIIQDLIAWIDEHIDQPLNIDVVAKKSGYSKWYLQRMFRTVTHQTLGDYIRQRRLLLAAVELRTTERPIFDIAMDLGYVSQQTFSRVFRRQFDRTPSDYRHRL

PaaG = biological target: T6, PaaG (E. coli K-12, UniProt P77467 1-262)
T6 construct: PaaG, E. coli K-12
T6 sequence (looked up): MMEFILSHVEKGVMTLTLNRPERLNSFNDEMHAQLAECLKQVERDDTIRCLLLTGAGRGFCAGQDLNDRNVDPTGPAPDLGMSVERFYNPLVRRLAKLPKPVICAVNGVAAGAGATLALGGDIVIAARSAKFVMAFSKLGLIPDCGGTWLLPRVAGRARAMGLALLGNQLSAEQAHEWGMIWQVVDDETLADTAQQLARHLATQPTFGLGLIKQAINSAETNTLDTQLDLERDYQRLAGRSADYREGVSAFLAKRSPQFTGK

Measured: binding result

B1: N-terminal biotinylated Lactoferricin B (peptide, UniProt P24627 36-60, looked up)
peptide: Biotin-FKCRRWQWRMKKLGAPSITCVRRAF
modifications: ends and bridges not checked
notes: lactoferricin B (LfcinB), cationic antimicrobial peptide of 25 amino acids; also called biotinylated LfcinB; biotin-labeled LfcinB; source: bought: Kelowna Inc
binds: all assays above

Source: paper PMC3229523, “Identification of Lactoferricin B Intracellular Targets Using an Escherichia coli Proteome Chip” (PLoS ONE, 2011)
